Assay results: publication PMC3575409, “Identification of a Novel Protein-Protein Interaction Motif Mediating Interaction of GPCR-Associated Sorting Proteins with G Protein-Coupled Receptors” (PLoS ONE, 2013)
Each block holds one molecule with its values, some of them ahead of it.

Key:
Type in all cases: binding
[1] = system: GST-fused TGFβ (type III transforming growth factor β receptor) C-tail; assay: GST-pull down, TGFβ C-tail; conditions: non-GPCR control
From the text: (§1) cDNAs encoding the cytoplasmic C-tail of 14 GPCRs and 2 one-transmembrane receptors were cloned into the pGEX-2T prokaryotic expression vector downstream the GST sequence. The following pGEX constructs were engineered: pGEX-DOR encoding residues 314–372 of the δ-opioid receptor (referring to Swiss-Prot accession number U10504), pGEX-MOR encoding residues 334–400 of the µ-opioid receptor (L29301), pGEX-KOR encoding residues 326–380 of the κ–opioid receptor (U17298), pGEX-ORL1 encoding residues 315–370 of the opioid receptor-like 1 (X77130), pGEX-M1 encoding residues 414–460 of the muscarinic M1 acetylcholine receptor (X52068), pGEX-M2 encoding residues 436–466 of the muscarinic M2 acetylcholine receptor (M16404), pGEX- ADRB1 encoding residues 373–477 of the β1 adrenergic receptor (J03019), pGEX-ADRB2 encoding residues 322–413 of the β2 adrenergic receptor (P07550), pGEX-CALCR encoding residues 407–490 of the calcitonin receptor (L00587), pGEX-CNR2 encoding residues 295–360 of the cannabinoid type 2 receptor (P34972), pGEX-5HT7 encoding residues 380–445 of the 5-hydroxytryptamine 7 receptor (L21195), pGEX-H2 encoding residues 284–349 of the histamine 2 receptor (S57565), pGEX-TXA2 encoding residues 304–343 of the α isoform of the thromboxane A2 receptor (D38081), pGEX-FZ4 encoding residues 493–537 of the frizzled 4 receptor (AB032417), pGEX-TGFβ encoding residues 805–849 of the type III transforming growth factor b receptor (L07594), pGEX-IGF1 encoding residues 1268–1367 of the insulin growth factor I receptor (X04434). Free GST was produced by using the pGEX-4T3 expression vector without insert. The same plasmid was used to clone the cDNA encoding a central domain of GASP-1, corresponding to amino acids 380 to 1073, downstream the GST sequence. All these plasmids were transformed into the Escherichia coli BL21 strain and expression was induced using 1mM of isopropylthiogalactoside for 2 h at 37°C. Bacteria were then pelleted, resuspended in PBS supplemented with cOmplete protease inhibitors (Roche), lysed at 1.5 kbar using a basic Z cell disrupter (constant system) and finally the lysates were cleared by centrifugation (10,000g, 15 min, 4°C).
(§2) cDNAs encoding GASP-1 and GASP-2 were cloned into the pcDNA3 eukaryotic expression vectors. cDNAs encoding GASP-3, -6, -7, and -9 were subcloned into pcDNA3.1 vectors. All the clones were controlled by DNA sequencing. The in vitro production was performed by using the TNT Quick-coupled Transcription/Translation T7 kit (Promega) in presence of [^35S]-Methionine according to the instructions from the manufacturer.
(§3) GST-fusion proteins were immobilized on glutathione-coupled Sepharose beads (GE Healthcare) for 1 h at 4°C and incubated with [^35S]-labelled in vitro translated GASP proteins or their truncated or mutated forms in ice-cold binding buffer containing: 20 mM Tris-HCl pH 7.4, 150 mM NaCl, 1 mM EDTA, 1 mM DTT, 10% glycerol and 1% Triton X-100. The mixture was incubated for 1 h at 4°C with gentle rocking. The beads were washed five times with the same ice-cold buffer, resuspended in 30 µl SDS-PAGE sample buffer, incubated 10 min at 65°C, and pelleted for 60 s at 3000 g. The supernatants were then analyzed by SDS-PAGE, the gels were stained with Coomassie blue to visualize GST-fusion proteins, dried and analyzed using a Phosphor-imager (Personal Molecular Imager FX, Biorad) to visualize [^35S]-labelled GASPs. Quantification was performed with the Quantity One software (Biorad). GST-pull down quantification data were analyzed using GraphPad Prism 4.03 (GraphPad Software). Quantifications presented are means of at least three independent experiments.

[2] = system: GST-fused IGF1 (insulin growth factor I receptor) C-tail; assay: GST-pull down, IGF1 C-tail; conditions: non-GPCR control
From the text: as §1, §2, §3

[3] = system: GST-fused GPCR C-tails; assay: GST-pull down, GPCR C-tails; conditions: for interaction with GPCR C-tails: twelve GPCR C-tails
From the text: as §1, §2
as §3, with “experiments. […]” for “experiments.”

[4] = system: GST-fused ADRB1 C-tail; assay: GST-pull down, ADRB1 C-tail; conditions: compared with full-length GASP-1
From the text: as §1, §2, §3

[5] = system: GST-fused DOR C-tail; assay: GST-pull down, DOR C-tail; conditions: compared with full-length GASP-1
From the text: as §1, §2, §3

[6] = system: GST-fused M1 C-tail; assay: GST-pull down, M1 C-tail; conditions: compared with full-length GASP-1
From the text: as §1, §2, §3

interaction with TGFβ C-tail [1]: No interaction was detected
interaction with IGF1 C-tail [2]: No interaction was detected
B1: GASP-7: member of the second GASP subfamily, without GASP motif (protein)
chain: MGRTREAGCVAAGVVIGAGACYCVYRLAWGRDENEKIWDEDEESTDTSEIGVETVKGAKTNAGAGSGAKLQGDSEVKPEVSLGLEDCPGVKEKAHSGSHSGGGLEAKAKALFNTLKEQASAKAGKGARVGTISGNRTLAPSLPCPGGRGGGCHPTRSGSRAGGRASGKSKGKARSKSTRAPATTWPVRRGKFNFPYKIDDILSAPDLQKVLNILERTNDPFIQEVALVTLGNNAAYSFNQNAIRELGGVPIIAKLIKTKDPIIREKTYNALNNLSVNAENQGKIKTYISQVCDDTMVCRLDSAVQMAGLRLLTNMTVTNHYQHLLSYSFPDFFALLFLGNHFTKIQIMKLIINFTENPAMTRELVSCKVPSELISLFNKEWDREILLNILTLFENINDNIKNEGLASSRKEFSRSSLFFLFKESGVCVKKIKALANHNDLVVKVKVLKVLTKL
modifications: [35S]-methionine labelled
interaction with GPCR C-tails [3]: weak to medium interactions and weak

interaction with TGFβ C-tail [1]: no interaction was detected
interaction with IGF1 C-tail [2]: no interaction was detected
B2: GASP-2: member of the GASP family, two GASP motifs (protein)
chain: MTGAEIEPSAQAKPEKKAGEEVIAGPERENDVPLVVRPKVRTQATTGARPKTETKSVPAARPKTEAQAMSGARPKTEVQVMGGARPKTEAQGITGARPKTDARAVGGARSKTDAKAIPGARPKDEAQAWAQSEFGTEAVSQAEGVSQTNAVAWPLATAESGSVTKSKGLSMDRELVNVDAETFPGTQGQKGIQPWFGPGEETNMGSWCYSRPRAREEASNESGFWSADETSTASSFWTGEETSVRSWPREESNTRSRHRAKHQTNPRSRPRSKQEAYVDSWSGSEDEASNPFSFWVGENTNNLFRPRVREEANIRSKLRTNREDCFESESEDEFYKQSWVLPGEEANSRFRHRDKEDPNTALKLRAQKDVDSDRVKQEPRFEEEVIIGSWFWAEKEASLEGGASAICESEPGTEEGAIGGSAYWAEEKSSLGAVAREEAKPESEEEAIFGSWFWDRDEACFDLNPCPVYKVSDRFRDAAEELNASSRPQTWDEVTVEFKPGLFHGVGFRSTSPFGIPEEASEMLEAKPKNLELSPEGEEQESLLQPDQPSPEFTFQYDPSYRSVREIREHLRARESAESESWSCSCIQCELKIGSEEFEEFLLLMDKIRDPFIHEISKIAMGMRSASQFTRDFIRDSGVVSLIETLLNYPSSRVRTSFLENMIHMAPPYPNLNMIETFICQVCEETLAHSVDSLEQLTGIRMLRHLTMTIDYHTLIANYMSGFLSLLTTANARTKFHVLKMLLNLSENPAVAKKLFSAKALSIFVGLFNIEETNDNIQIVIKMFQNISNIIKSGKMSLIDDDFSLEPLISAFREFEELAKQLQAQIDNQNDPEVGQQS
modifications: [35S]-methionine labelled
GASP input retained by GPCR C-tails ([3]; percent of GASP input): > 10%
interaction with GPCR C-tails [3]: medium to strong interactions

B3: mutant 380–1395: truncated mutant of GASP-1 that lacks the N-terminal part (protein)
chain: MTKEEAKTKARARAKQEARSEEEALIGTWFWATDESSMADEASIESSLQVEDESIIGSWFWTEEEASMGTGASSKSRPRTDGERIGDSLFGAREKTSMKTGAEATSESILAADDEQVIIGSWFWAGEEVNQEAEEETIFGSWFWVIDAASVESGVGVSCESRTRSEEEEVIGPWFWSGEQVDIEAGIGEEARPGAEEETIFGSWFWAENQTYMDCRAETSCDTMQGAEEEEPIIGSWFWTRVEACVEGDVNSKSSLEDKEEAMIPCFGAKEEVSMKHGTGVRCRFMAGAEETNNKSCFWAEKEPCMYPAGGGSWKSRPEEEEDIVNSWFWSRKYTKPEAIIGSWLWATEESNIDGTGEKAKLLTEEETIINSWFWKEDEAISEATDREESRPEAEEGDIIGSWFWAGEEDRLEPAAETREEDRLAAEKEGIVGSWFGAREETIRREAGSCSKSSPKAEEEEVIIGSWFWEEEASPEAVAGVGFESKPGTEEEEITVGSWFWPEEEASIQAGSQAVEEMESETEEETIFGSWFWDGKEVSEEAGPCCVSKPEDDEEMIVESWFWSRDKAIKETGTVATCESKPENEEGAIVGSWFEAEDEVDNRTDNGSNCGSRTLADEDEAIVGSWFWAGDEAHFESNPSPVFRAICRSTCSVEQEPDPSRRPQSWEEVTVQFKPGPWGRVGFPSISPFRFPKEAASLFCEMFGGKPRNMVLSPEGEDQESLLQPDQPSPEFPFQYDPSYRSVQEIREHLRAKESTEPESSSCNCIQCELKIGSEEFEELLLLMEKIRDPFIHEISKIAMGMRSASQFTRDFIRDSGVVSLIETLLNYPSSRVRTSFLENMIRMAPPYPNLNIIQTYICKVCEETLAYSVDSPEQLSGIRMIRHLTTTTDYHTLVANYMSGFLSLLATGNAKTRFHVLKMLLNLSENLFMTKELLSAEAVSEFIGLFNREETNDNIQIVLAIFENIGNNIKKETVFSDDDFNIEPLISAFHKVEKFAKELQGKTDNQNDPEGDQEN
modifications: [35S]-methionine labelled
interaction of truncated GASP-1 with ADRB1 C-tail (words) [4]: interacted similarly
interaction of truncated GASP-1 with DOR C-tail [5]: interacted similarly
interaction of truncated GASP-1 with M1 C-tail (words) [6]: interacted similarly

B4: mutant C: derived from mutant 924–1395 by deletion of 45 AA from the C-terminus (protein, UniProt Q5JY77 924-1350, looked up, fragment)
chain: CCVSKPEDDEEMIVESWFWSRDKAIKETGTVATCESKPENEEGAIVGSWFEAEDEVDNRTDNGSNCGSRTLADEDEAIVGSWFWAGDEAHFESNPSPVFRAICRSTCSVEQEPDPSRRPQSWEEVTVQFKPGPWGRVGFPSISPFRFPKEAASLFCEMFGGKPRNMVLSPEGEDQESLLQPDQPSPEFPFQYDPSYRSVQEIREHLRAKESTEPESSSCNCIQCELKIGSEEFEELLLLMEKIRDPFIHEISKIAMGMRSASQFTRDFIRDSGVVSLIETLLNYPSSRVRTSFLENMIRMAPPYPNLNIIQTYICKVCEETLAYSVDSPEQLSGIRMIRHLTTTTDYHTLVANYMSGFLSLLATGNAKTRFHVLKMLLNLSENLFMTKELLSAEAVSEFIGLFNREETNDNIQIVLAIFENIGNNIK
interaction of truncated GASP-1 with DOR C-tail [5]: strong interaction

B5: mutant D: derived from mutant 924–1395 by deletion of 95 AA from the C-terminus (protein, UniProt Q5JY77 924-1300, looked up, fragment)
chain: CCVSKPEDDEEMIVESWFWSRDKAIKETGTVATCESKPENEEGAIVGSWFEAEDEVDNRTDNGSNCGSRTLADEDEAIVGSWFWAGDEAHFESNPSPVFRAICRSTCSVEQEPDPSRRPQSWEEVTVQFKPGPWGRVGFPSISPFRFPKEAASLFCEMFGGKPRNMVLSPEGEDQESLLQPDQPSPEFPFQYDPSYRSVQEIREHLRAKESTEPESSSCNCIQCELKIGSEEFEELLLLMEKIRDPFIHEISKIAMGMRSASQFTRDFIRDSGVVSLIETLLNYPSSRVRTSFLENMIRMAPPYPNLNIIQTYICKVCEETLAYSVDSPEQLSGIRMIRHLTTTTDYHTLVANYMSGFLSLLATGNAKTRFHVLKML
interaction of truncated GASP-1 with DOR C-tail [5]: completely lost
